In patent publication US20200190507A1, “Encoded Solid Phase Compound Library with Polynucleotide Based Barcoding” (The Scripps Research Institute, priority 2016, published 2020):
“Also recorded” adds a separate entry of the source.

System: ATB serum IgGs
Assay: Antigen competition binding analysis with beads displaying 2-B
Design: species or system human
Settings: for competition with 2-B for binding ATB serum IgGs: pooled ATB serum, beads displaying 2-B, CFP 250 μg/mL

Row | Molecule | competition with 2-B for binding ATB serum IgGs | ATB IgG binding of Ag85B relative to Ag85A (competition titration with 2-B beads) [fold]
1 | recombinant Ag85B: Mycobacterium tuberculosis recombinant protein reference standard Ag85B, expressed in E. coli (protein) FSRPGLPVEYLQVPSPSMGRDIKVQFQSGGNNSPAVYLLDGLRAQDDYNGWDINTPAFEWYYQSGLSIVMPVGGQSSFYSDWYSPACGKAGCQTYKWETFLTSELPQWLSANRAVKPTGSAAIGLSMAGSSAMILAAYHPQQFIYAGSLSALLDPSQGMGPSLIGLAMGDAGGYKAADMWGPSSDPAWERNDPTQQIPKLVANNTRLWVYCGNGTPNELGGANIPAEFLENFVRSSNLKFQDAYNAAGGHNAVFNFPPNGTHSWEYWGAQLNAMKGDLQSSLGAG | no binding competition; also recorded: unreactive; also recorded: did not compete | 
2 | Ag85B: Mycobacterium tuberculosis purified native protein Ag85B (Gene Rv1886c), Strain H37Rv (protein) FSRPGLPVEYLQVPSPSMGRDIKVQFQSGGNNSPAVYLLDGLRAQDDYNGWDINTPAFEWYYQSGLSIVMPVGGQSSFYSDWYSPACGKAGCQTYKWETFLTSELPQWLSANRAVKPTGSAAIGLSMAGSSAMILAAYHPQQFIYAGSLSALLDPSQGMGPSLIGLAMGDAGGYKAADMWGPSSDPAWERNDPTQQIPKLVANNTRLWVYCGNGTPNELGGANIPAEFLENFVRSSNLKFQDAYNAAGGHNAVFNFPPNGTHSWEYWGAQLNAMKGDLQSSLGAG | compete strongly | ~10
